This is an account of results in article PMC3066073.

Like-named read-outs stand apart in the source and are kept apart here.

The target of data set [1] is T1, RUNX1 (recombinant) (UniProt Q01196 1-453). Put plainly: EMSA, supershift. On the technique in general: A gel shift assay detects complexes by their altered migration in electrophoresis.
In data set [2] the target is T1, RUNX1 (recombinant). As to the kind of experiment: EMSA, supershift. The source holds these as a separate data set.

T1 sequence (Q01196 whole entry): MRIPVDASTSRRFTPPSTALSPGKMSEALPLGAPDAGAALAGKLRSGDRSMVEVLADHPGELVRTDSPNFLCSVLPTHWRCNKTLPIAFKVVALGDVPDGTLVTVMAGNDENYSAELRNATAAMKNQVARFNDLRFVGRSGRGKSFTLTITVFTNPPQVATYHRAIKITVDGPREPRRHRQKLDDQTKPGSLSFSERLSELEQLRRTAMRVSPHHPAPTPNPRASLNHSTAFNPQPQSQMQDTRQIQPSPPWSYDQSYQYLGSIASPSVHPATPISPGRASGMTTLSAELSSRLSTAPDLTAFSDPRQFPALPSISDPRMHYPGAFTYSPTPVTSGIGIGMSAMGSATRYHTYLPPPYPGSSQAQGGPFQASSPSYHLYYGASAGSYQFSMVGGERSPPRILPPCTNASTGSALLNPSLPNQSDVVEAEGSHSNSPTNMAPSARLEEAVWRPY

B1: PKC-theta Wt probe I (dsDNA)
DNA 1: CAAATGCCTGGGGTAGGTCA
DNA 2: TGACCTACCCCAGGCATTTG
Turning to B1, the binding result with RUNX1 (recombinant) [1] is “binds”.

B2: PKC-theta Wt probe III (dsDNA)
DNA 1: ATGAGCCACCGCACCTGGCC
DNA 2: GGCCAGGTGCGGTGGCTCAT
As to B2, the binding result with RUNX1 (recombinant) [2] was “binds”.
